Consider two proteins from publication PMC4066437, “Oxidation of cellular amino acid pools leads to cytotoxic mistranslation of the genetic code” (eLife, 2014).

What is called Km is the substrate concentration at which the rate is half of its maximum. In general, kcat refers to the number of substrate molecules converted per active site and unit of time at saturation. As a reminder, the kcat/Km is the second-order rate constant that governs catalysis at low substrate concentration.

What all share (assay): ATP/PPi exchange (amino acid activation)
Substrate in series [1]: NC(Cc1cccc(O)c1)C(=O)O
The series is classed as biochemical, Escherichia coli. As to conditions: 2 mM ATP, 2 mM [32P]PPi, 10 mM MgCl2, pH 7.2, 37 °C, D,L-m-Tyr varied 20-2000 µM. From the text: (§1) ATP/PPi exchange (amino acid activation) on EcPheRS (E. coli phenylalanine-tRNA synthetase)

Substrate in series [2]: N[C@@H](Cc1ccccc1)C(=O)O
In kind it is biochemical, Escherichia coli. The following applies: 2 mM ATP, 2 mM [32P]PPi, 10 mM MgCl2, pH 7.2, 37 °C, stereochemistry of Phe not given.
Description: as §1

Substrate in series [3]: NC(Cc1cccc(O)c1)C(=O)O
The series is classed as biochemical, Saccharomyces cerevisiae. The following applies: 2 mM ATP, 2 mM [32P]PPi, 10 mM MgCl2, pH 7.2, 37 °C, D,L-m-Tyr varied 20-2000 µM. From the text:
(§2) ATP/PPi exchange (amino acid activation) on ScctPheRS (Saccharomyces cerevisiae cytoplasmic PheRS; Yeast ct)

Substrate in series [4]: N[C@@H](Cc1ccccc1)C(=O)O
In kind it is biochemical, Saccharomyces cerevisiae. The following applies: 2 mM ATP, 2 mM [32P]PPi, 10 mM MgCl2, pH 7.2, 37 °C, stereochemistry of Phe not given.
Description: as §2

B1: EcPheRS (E. coli phenylalanine-tRNA synthetase) (Escherichia coli K-12) (protein)
chain: MSHLAELVASAKAAISQASDVAALDNVRVEYLGKKGHLTLQMTTLRELPPEERPAAGAVINEAKEQVQQALNARKAELESAALNARLAAETIDVSLPGRRIENGGLHPVTRTIDRIESFFGELGFTVATGPEIEDDYHNFDALNIPGHHPARADHDTFWFDTTRLLRTQTSGVQIRTMKAQQPPIRIIAPGRVYRNDYDQTHTPMFHQMEGLIVDTNISFTNLKGTLHDFLRNFFEEDLQIRFRPSYFPFTEPSAEVDVMGKNGKWLEVLGCGMVHPNVLRNVGIDPEVYSGFAFGMGMERLTMLRYGVTDLRSFFENDLRFLKQFK
notes: His-tagged, from plasmid pQE31-EcFRS (pheS and pheT), dialysed against PPi; (alpha beta)2 heterotetramer; with Phenylalanine--tRNA ligase beta subunit
As to B1, in series [1], the Michaelis constant (Km) was determined as 247 ± 60 µM, the kcat was found to be 2.1 ± 0.8 s⁻¹ and the kcat/Km stood at 8000 M⁻¹ s⁻¹. For the same protein, in series [2], the Km is 18 ± 4 µM, the kcat stood at 5.2 ± 2 s⁻¹ and the kcat/Km turned out to be 290000 M⁻¹ s⁻¹.

B2: ScctPheRS (Saccharomyces cerevisiae cytoplasmic PheRS; Yeast ct) (Saccharomyces cerevisiae S288C) (protein)
chain: SDFQLEILKKLDELDEIKSTLATFPQHGSQDVLSALNSLKAHNKLEFSKVDTVTYDLTKEGAQILNEGSYEIKLVKLIQELGQLQIKDVMSKLGPQVGKVGQARAFKNGWIAKNASNELELSAKLQNTDLNELTDETQSILAQIKNNSHLDSIDAKILNDLKKRKLIAQGKITDFNVTKGPEFSTDLTKLETDLTSDMVSTNAYKDLKFKPYNFNSQGVQISSGALHPLNKVREEFRQIFFSMGFTEMPSNQYVETGFWNFDALYVPQQHPARDLQDTFYIKDPLTADLPDDKTYMDNIKAVHEQGRFGSIGYRYNWKPEECQKLVLRTHSTAISARMLHDLAKDPKPTRLFSIDRVFRNEAVDATHLAEFHQVEGVLADYNITLGDLIKFMEEFFERMGVTGLRFKPTYNPYTEPSMEIFSWHEGLQKWVEIGNSGMFRPEMLESMGLPKDLRVLGWGLSLERPTMIKYKVQNIRELLGHKVSLDFIETNPAARLDEDLYE
notes: His-tagged purified cytoplasmic enzyme; (alpha beta)2 heterotetramer; with Phenylalanine--tRNA ligase beta subunit
Take B2: in series [3], the Km worked out at 1150 ± 230 µM, the kcat came to 26 ± 4 s⁻¹ and the kcat/Km was found to be 23000 M⁻¹ s⁻¹. For the same protein, in series [4], the Michaelis constant (Km) is 16 ± 2 µM, the turnover number (kcat) was found to be 26 ± 4 s⁻¹ and the kcat/Km turned out to be 1.6e+06 M⁻¹ s⁻¹.
